Patent publication US20250114463A1, “LIVER-TARGETED DRUG AND USE THEREOF” (HANMI PHARM. CO., LTD., priority 2021, published 2025)
Bridges are numbered along the chain shown (N, C = ends). Where no end group is shown, it is not given here. [ ]: non-standard residue; d: D form. The star is where a group is joined. Acetyl(2-(4-imidazolyl)) = O=C(Cc1c[nH]cn1)*; Aib = CC(C)(N)C(=O)O

T1: human GIP receptor (human, UniProt P48546 22-466)
T1 sequence (looked up): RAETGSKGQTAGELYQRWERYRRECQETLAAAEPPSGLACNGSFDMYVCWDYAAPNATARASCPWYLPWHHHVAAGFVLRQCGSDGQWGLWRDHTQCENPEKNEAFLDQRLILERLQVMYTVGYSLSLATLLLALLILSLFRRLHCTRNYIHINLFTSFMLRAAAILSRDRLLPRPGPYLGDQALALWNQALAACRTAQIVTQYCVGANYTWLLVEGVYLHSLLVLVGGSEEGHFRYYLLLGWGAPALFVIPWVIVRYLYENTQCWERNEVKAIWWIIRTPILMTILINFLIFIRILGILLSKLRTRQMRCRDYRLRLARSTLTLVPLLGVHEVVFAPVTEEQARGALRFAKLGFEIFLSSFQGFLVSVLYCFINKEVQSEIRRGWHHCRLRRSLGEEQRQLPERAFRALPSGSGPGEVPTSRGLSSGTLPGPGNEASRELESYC


Experiments:
Experiment in all cases: cell-based or functional assay
[1] = molecular target: human GCG receptor (human, UniProt P47871 26-477)
Chain of human GCG receptor (P47871 26-477): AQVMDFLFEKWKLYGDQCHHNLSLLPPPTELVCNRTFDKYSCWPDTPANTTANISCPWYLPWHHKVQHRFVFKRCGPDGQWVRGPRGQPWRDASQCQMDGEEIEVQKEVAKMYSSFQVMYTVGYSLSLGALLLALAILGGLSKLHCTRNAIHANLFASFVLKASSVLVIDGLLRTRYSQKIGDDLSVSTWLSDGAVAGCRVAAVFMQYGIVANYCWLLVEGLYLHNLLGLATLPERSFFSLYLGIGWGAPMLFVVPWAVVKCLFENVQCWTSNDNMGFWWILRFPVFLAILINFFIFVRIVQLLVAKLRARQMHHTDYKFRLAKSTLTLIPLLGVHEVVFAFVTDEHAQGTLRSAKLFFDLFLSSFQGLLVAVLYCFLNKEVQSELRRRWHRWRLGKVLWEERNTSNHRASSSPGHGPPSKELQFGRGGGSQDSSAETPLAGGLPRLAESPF

[2] = molecular target: T1, human GIP receptor
[3] = molecular target: human GLP-1 receptor (human, UniProt P43220 24-463)

Binder	in vitro Activity Compared to Native Peptide (%), vs Glucagon [1] [%]	in vitro Activity Compared to Native Peptide (%), vs GIP [2] [%]	in vitro Activity Compared to Native Peptide (%), vs GLP-1 [3] [%]
[Acetyl(2-(4-imidazolyl))]GQGTFTSDLSKQMDSERAREFIEWLKNTGPSSGAPPPSHG-NH2 [triple agonist of SEQ ID NO: 18]	< 0.1	< 0.1	< 0.1
H[Aib]QGTFTSDYSKYLDEKACKEFVQWLLAQ (bridge 16-20; not fully specified (C-terminus)) [triple agonist of SEQ ID NO: 31]	2.2	2.4	135
H[Aib]QGTFTSDVSSYLLGQAAKQFIAWLVKGGGPSSGAPPPSC-NH2 [triple agonist of SEQ ID NO: 3]	< 0.1	< 0.1	1.8
HXQGTFTSDCSKYLDERAAQDFVQWLLDGGPSSGAPPPS (HELM PEPTIDE1{H.[Aib].Q.G.T.F.T.S.D.C.S.K.Y.L.D.E.R.A.A.Q.D.F.V.Q.W.L.L.D.G.G.P.S.S.G.A.P.P.P.S.[am]}$$$$V2.0; N-terminus assumed; SMILES CC(C)C[C@H](NC(=O)[C@H](CC(C)C)NC(=O)[C@H](Cc1c[nH]c2ccccc12)NC(=O)[C@H](CCC(N)=O)NC(=O)[C@@H](NC(=O)[C@H](Cc1ccccc1)NC(=O)[C@H](CC(=O)O)NC(=O)[C@H](CCC(N)=O)NC(=O)[C@H](C)NC(=O)[C@H](C)NC(=O)[C@H](CCCNC(=N)N)NC(=O)[C@H](CCC(=O)O)NC(=O)[C@H](CC(=O)O)NC(=O)[C@H](CC(C)C)NC(=O)[C@H](Cc1ccc(O)cc1)NC(=O)[C@H](CCCCN)NC(=O)[C@H](CO)NC(=O)[C@H](CS)NC(=O)[C@H](CC(=O)O)NC(=O)[C@H](CO)NC(=O)[C@@H](NC(=O)[C@H](Cc1ccccc1)NC(=O)[C@@H](NC(=O)CNC(=O)[C@H](CCC(N)=O)NC(=O)C(C)(C)NC(=O)[C@@H](N)Cc1c[nH]cn1)[C@@H](C)O)[C@@H](C)O)C(C)C)C(=O)N[C@@H](CC(=O)O)C(=O)NCC(=O)NCC(=O)N1CCC[C@H]1C(=O)N[C@@H](CO)C(=O)N[C@@H](CO)C(=O)NCC(=O)N[C@@H](C)C(=O)N1CCC[C@H]1C(=O)N1CCC[C@H]1C(=O)N1CCC[C@H]1C(=O)N[C@@H](CO)C(N)=O) [triple agonist of SEQ ID NO: 25]	0.1	< 0.1	82.6
HXQGTFTSDCSKYLDSRAAQDFVQWLLDGGPSSGAPPPS (HELM PEPTIDE1{H.[Aib].Q.G.T.F.T.S.D.C.S.K.Y.L.D.S.R.A.A.Q.D.F.V.Q.W.L.L.D.G.G.P.S.S.G.A.P.P.P.S.[am]}$$$$V2.0; N-terminus assumed; SMILES CC(C)C[C@H](NC(=O)[C@H](CC(C)C)NC(=O)[C@H](Cc1c[nH]c2ccccc12)NC(=O)[C@H](CCC(N)=O)NC(=O)[C@@H](NC(=O)[C@H](Cc1ccccc1)NC(=O)[C@H](CC(=O)O)NC(=O)[C@H](CCC(N)=O)NC(=O)[C@H](C)NC(=O)[C@H](C)NC(=O)[C@H](CCCNC(=N)N)NC(=O)[C@H](CO)NC(=O)[C@H](CC(=O)O)NC(=O)[C@H](CC(C)C)NC(=O)[C@H](Cc1ccc(O)cc1)NC(=O)[C@H](CCCCN)NC(=O)[C@H](CO)NC(=O)[C@H](CS)NC(=O)[C@H](CC(=O)O)NC(=O)[C@H](CO)NC(=O)[C@@H](NC(=O)[C@H](Cc1ccccc1)NC(=O)[C@@H](NC(=O)CNC(=O)[C@H](CCC(N)=O)NC(=O)C(C)(C)NC(=O)[C@@H](N)Cc1c[nH]cn1)[C@@H](C)O)[C@@H](C)O)C(C)C)C(=O)N[C@@H](CC(=O)O)C(=O)NCC(=O)NCC(=O)N1CCC[C@H]1C(=O)N[C@@H](CO)C(=O)N[C@@H](CO)C(=O)NCC(=O)N[C@@H](C)C(=O)N1CCC[C@H]1C(=O)N1CCC[C@H]1C(=O)N1CCC[C@H]1C(=O)N[C@@H](CO)C(N)=O) [triple agonist of SEQ ID NO: 26]	0.2	< 0.1	64.5
H[Aib]QGTFTSDYSKYLDEKAAKEFVQWLLNTC (bridge 16-20; not fully specified (C-terminus)) [triple agonist of SEQ ID NO: 29]	6	< 0.1	38.5
Y[Aib]QGTFTSDYSKCLDEKRAKEFVQWLLDHHPSSGQPPPS-NH2 (bridge 16-20) [triple agonist of SEQ ID NO: 22]	140	59.7	20.1
HXQGTFTSDYSKYLDERACQDFVQWLLDQGGPSSGAPPPS (HELM PEPTIDE1{H.[Aib].Q.G.T.F.T.S.D.Y.S.K.Y.L.D.E.R.A.C.Q.D.F.V.Q.W.L.L.D.Q.G.G.P.S.S.G.A.P.P.P.S.[am]}$$$$V2.0; N-terminus assumed; SMILES CC(C)C[C@H](NC(=O)[C@H](CC(C)C)NC(=O)[C@H](Cc1c[nH]c2ccccc12)NC(=O)[C@H](CCC(N)=O)NC(=O)[C@@H](NC(=O)[C@H](Cc1ccccc1)NC(=O)[C@H](CC(=O)O)NC(=O)[C@H](CCC(N)=O)NC(=O)[C@H](CS)NC(=O)[C@H](C)NC(=O)[C@H](CCCNC(=N)N)NC(=O)[C@H](CCC(=O)O)NC(=O)[C@H](CC(=O)O)NC(=O)[C@H](CC(C)C)NC(=O)[C@H](Cc1ccc(O)cc1)NC(=O)[C@H](CCCCN)NC(=O)[C@H](CO)NC(=O)[C@H](Cc1ccc(O)cc1)NC(=O)[C@H](CC(=O)O)NC(=O)[C@H](CO)NC(=O)[C@@H](NC(=O)[C@H](Cc1ccccc1)NC(=O)[C@@H](NC(=O)CNC(=O)[C@H](CCC(N)=O)NC(=O)C(C)(C)NC(=O)[C@@H](N)Cc1c[nH]cn1)[C@@H](C)O)[C@@H](C)O)C(C)C)C(=O)N[C@@H](CC(=O)O)C(=O)N[C@@H](CCC(N)=O)C(=O)NCC(=O)NCC(=O)N1CCC[C@H]1C(=O)N[C@@H](CO)C(=O)N[C@@H](CO)C(=O)NCC(=O)N[C@@H](C)C(=O)N1CCC[C@H]1C(=O)N1CCC[C@H]1C(=O)N1CCC[C@H]1C(=O)N[C@@H](CO)C(N)=O) [triple agonist of SEQ ID NO: 27]	0.8	0.9	83.1
[Acetyl(2-(4-imidazolyl))]GQGTFTSDLSKQMDEERAREFIEWLLAQKPSSGAPPPSHG-NH2 [triple agonist of SEQ ID NO: 17]	< 0.1	< 0.1	0.2
Y[Aib]QGTFTSDYSKYLDECRAKEFVQWLKNGGPSSGAPPPS (bridge 16-20; not fully specified (C-terminus)) [triple agonist of SEQ ID NO: 24]	9.3	< 0.1	41.2
[Acetyl(2-(4-imidazolyl))]GQGTFTSDLSIQYEEEAQQDFVEWLKDTGPSSGAPPPSHG-NH2 [triple agonist of SEQ ID NO: 20]	< 0.1	< 0.1	< 0.1
H[Aib]QGTFTSDYSKYLDEKAQKEFVQWLLDTC (bridge 16-20; not fully specified (C-terminus)) [triple agonist of SEQ ID NO: 30]	0.7	0.8	142
[Acetyl(2-(4-imidazolyl))]GQGTFTSDLSIQYDSEHQRDFIEWLKDTGPSSGAPPPSHG-NH2 [triple agonist of SEQ ID NO: 19]	< 0.1	< 0.1	< 0.1
Y[Aib]QGTFTSDYSKYLDECRAKEFVQWLLDHHPSSGQPPPS-NH2 (bridge 16-20; also: ring type not given here) [triple agonist of SEQ ID NO: 21]	267	22.7	17.8
H[Aib]QGTFTSDYSKYLDEKRAQEFVCWLLAQKGKKNDWKHNIT-NH2 [triple agonist of SEQ ID NO: 28]	1.6	< 0.1	17.2
Y[Aib]QGTFTSDYSKYLDECRAKEFVQWLLAQKGKKNDWKHNIT (bridge 16-20; not fully specified (C-terminus)) [triple agonist of SEQ ID NO: 23]	9.3	< 0.1	4.01
